These results are taken from paper PMC7835884.

Several values for one entry are separate records, joined by “and”; a condition that tells them apart may be missing. Equal entries are not always repeated.

The target in test [1] is N-terminal 6X-His tagged TfAcCCB (carboxyltransferase subunit of Thermobifida fusca YX acyl-CoA carboxylase) (Thermobifida fusca YX). Briefly: SEC; Ni-NTA purified His-tagged TfAcCCB-TfAcCCE subcomplex or His-tagged TfAcCCA; Superdex 200 10/300 GL; 100 mM potassium phosphate pH 7.6, 0.75 mM DTT, 1 mM EDTA, 20% glycerol; apparent molecular weights against standards (Figure 2C, 2D). Background: Size exclusion chromatography separates by hydrodynamic size, large species first.

For test [2] the target is unchanged. Briefly: SEC; Ni-NTA purified holoenzyme from co-expression of all three subunits (wild-type or D427I TfAcCCB); Superdex 200 10/300 GL; 100 mM potassium phosphate pH 7.6, 0.75 mM DTT, 1 mM EDTA, 20% glycerol; apparent molecular weights against standards; peaks analysed by SDS-PAGE (Figure 2A, 2B).
For test [3] the target is unchanged. The test is described as follows: pull-down; subunits co-expressed in E. coli; Ni-NTA affinity chromatography via the His-tag on TfAcCCB; SDS-PAGE with Coomassie staining and densitometry, or Western blot with anti-S-tag antibody (Figure 1A, 1B). In general terms: In western blotting, separated proteins are transferred to a membrane and probed.
Test [4] deals with TfAcCCA (biotin carboxylase / biotin carboxyl carrier subunit of Thermobifida fusca YX acyl-CoA carboxylase), without tag (Thermobifida fusca YX). The test is described as follows: SEC; Ni-NTA purified holoenzyme from co-expression of all three subunits (wild-type or D427I TfAcCCB); Superdex 200 10/300 GL; 100 mM potassium phosphate pH 7.6, 0.75 mM DTT, 1 mM EDTA, 20% glycerol; apparent molecular weights against standards; peaks analysed by SDS-PAGE (Figure 2A, 2B).

The target of test [5] is N-terminal 6X-His tagged TfAcCCB (carboxyltransferase subunit of Thermobifida fusca YX acyl-CoA carboxylase) (Thermobifida fusca YX).

A word on the stoichiometry N: it is a count of units in the complex or per binding partner.

In the case of “N-terminal 6X-His tagged TfAcCCB (carboxyltransferase subunit of Thermobifida fusca YX acyl-CoA carboxylase) (enzyme)”, the stoichiometry N in test [1] was 6 and 12 and 18; in test [2], 6 and 9 and 3.
For “TfAcCCA (biotin carboxylase / biotin carboxyl carrier subunit of Thermobifida fusca YX acyl-CoA carboxylase), without tag (enzyme)”, the stoichiometry N is 1 molar ratio in test [3]; 3 and 6 and 9 in test [4].
“TfAcCCE (non-catalytic subunit of Thermobifida fusca YX acyl-CoA carboxylase), without tag (natural protein)” came in with a specificity constant (Vmax/Km) of acyl-CoA carboxylation by purified TfAcCCB, made with or without co-expressed TfAcCCE, mixed in vitro with purified TfAcCCA (acetyl-, propionyl- and butyryl-CoA) in test [5] of 20 fold. In test [3], this substance displayed a stoichiometry N of 1 molar ratio.
